Results published in article PMC6017454, “A Xylenol Orange-Based Screening Assay for the Substrate Specificity of Flavin-Dependent para-Phenol Oxidases” (Molecules : A Journal of Synthetic Chemistry and Natural …, 2018).

Tests used:
purified protein [1] = substrate: COc1cc(CO)ccc1O; experiment: purified protein; type: biochemical, Rhodococcus jostii; conditions: 50 mM potassium phosphate, pH 7.5, 25 °C, O2 as electron acceptor
purified protein [2] = substrate: COc1cc(CO)ccc1O; experiment: purified protein; type: biochemical, Penicillium simplicissimum; conditions: 50 mM potassium phosphate, pH 7.5, 25 °C, O2 as electron acceptor

Protein	Km (purified protein [1])	kcat (purified protein [1])	kcat/Km (purified protein [1])	Km (purified protein [2])	kcat (purified protein [2])	kcat/Km (purified protein [2])
EUGO-His (eugenol oxidase) (Rhodococcus jostii RHA1) (protein, E. coli TOP10; covalent FAD; EUGO dimeric) MTRTLPPGVSDERFDAALQRFRDVVGDKWVLSTADELEAFRDPYPVGAAEANLPSAVVSPESTEQVQDIVRIANEYGIPLSPVSTGKNNGYGGAAPRLSGSVIVKTGERMNRILEVNEKYGYALLEPGVTYFDLYEYLQSHDSGLMLDCPDLGWGSVVGNTLDRGVGYTPYGDHFMWQTGLEVVLPQGEVMRTGMGALPGSDAWQLFPYGFGPFPDGMFTQSNLGIVTKMGIALMQRPPASQSFLITFDKEEDLEQIVDIMLPLRINMAPLQNVPVLRNIFMDAAAVSKRTEWFDGDGPMPAEAIERMKKDLDLGFWNFYGTLYGPPPLIEMYYGMIKEAFGKIPGARFFTHEERDDRGGHVLQDRHKINNGIPSLDELQLLDWVPNGGHIGFSPVSAPDGREAMKQFEMVRNRANEYNKDYAAQFIIGLREMHHVCLFIYDTAIPEAREEILQMTKVLVREAAEAGYGEYRTHNALMDDVMATFNWGDGALLKFHEKIKDALDPNGIIAPGKSGIWSQRFRGQNL	47 ± 5 µM	8 ± 0.2 s⁻¹	170000 M⁻¹ s⁻¹			
His-VAO (vanillyl alcohol oxidase) (Penicillium simplicissimum) (protein, N-terminal 6xHis tag plus single Gly, tag kept; codon-optimised, E. coli BL21; covalent FAD; VAO predominantly octameric) MSKTQEFRPLTLPPKLSLSDFNEFIQDIIRIVGSENVEVISSKDQIVDGSYMKPTHTHDPHHVMDQDYFLASAIVAPRNVADVQSIVGLANKFSFPLWPISIGRNSGYGGAAPRVSGSVVLDMGKNMNRVLEVNVEGAYCVVEPGVTYHDLHNYLEANNLRDKLWLDVPDLGGGSVLGNAVERGVGYTPYGDHWMMHSGMEVVLANGELLRTGMGALPDPKRPETMGLKPEDQPWSKIAHLFPYGFGPYIDGLFSQSNMGIVTKIGIWLMPNPRGYQSYLITLPKDGDLKQAVDIIRPLRLGMALQNVPTIRHILLDAAVLGDKRSYSSRTEPLSDEELDKIAKQLNLGRWNFYGALYGPEPIRRVLWETIKDAFSAIPGVKFYFPEDTPENSVLRVRDKTMQGIPTYDELKWIDWLPNGAHLFFSPIAKVSGEDAMMQYAVTKKRCQEAGLDFIGTFTVGMREMHHIVCIVFNKKDLIQKRKVQWLMRTLIDDCAANGWGEYRTHLAFMDQIMETYNWNNSSFLRFNEVLKNAVDPNGIIAPGKSGVWPSQYSHVTWKL				129 ± 15 µM	2.5 ± 0.1 s⁻¹	19000 M⁻¹ s⁻¹
